Results on one compound are retold here after patent US20240299562A1 (priority 2020, published 2024).

*1 amine or outer side, *2 acyl side, *3 side chain or, on linkers, in order; H or OH if unused. Where a SMILES comes first, the peptide text is derived from it. [ ]: non-standard residue; d: D form. The star is where a group is joined. X1 = CO[C@@H](C1CCCN1[*:1])[C@@H](C)C(=O)[*:2]; Dil = CC[C@H](C)[C@H](NC)[C@@H](CC(=O)O)OC; PABC = O=C(OCc1ccc(N[*:1])cc1)[*:2]; Phosphonoacetyl = O=C(CP(=O)(O)O)*; X2 = C[C@@H](N*)[C@@H](O)c1ccccc1; NMeV = CN[C@H](C(=O)O)C(C)C

In this data set the test system is U87 MG glioblastoma cells subcutaneously implanted in nude NMRI mice. The experiment in a line: In vivo activity of PhAc-ALLP-PABC-MMAE on U87 MG glioblastoma xenograft. Set-up: species or system mouse. The following applies: 2 mg/kg iv, once per week. The method, then:
The in vivo efficacy of PhAc-ALLP-PABC-MMAE was tested in a mouse GBM model. U87 MG glioblastoma cells were subcutaneously (SC) implanted in nude NMRI mice. In total, 24 adult (9-10 weeks old) nude female NMRI mice (Janvier, France) were subjected to SC tumor cell grafting in the right flank. In total, 5×10^6 U87 MG cells resuspended in PBS plus Matrigel (1:1) were injected in 200 uL final volume. As soon as the tumors were palpable and reached the volume of 200 mm3 the treatment was started. At day zero, mice were randomly divided into 3 groups, based on the tumor volume, in order to have the following experimental sub-cohorts: • control group receiving the vehicle (PBS pH7.2) with a dose of 5 ml/kg, intravenously (iv), once per week (QW); • PhAc-ALLP-PABC-MMAE (2 mg/kg iv, QW); • MMAE (0.9 mg/kg iv, QW).
Treatments were performed once per week for a total of four tail vein administrations/injections (on days 1, 7, 14 and 21). One extra week of observation followed the active treatment phase. During the experiment, tumor volume was measured two times a week and was assessed three-dimensionally with a digital caliper (Mitutoyo, Illinois) using the following formula:
V=4/3π×[(d/2)^2×(D/2)], where d is the minor tumor axis and D is the major tumor axis.

Take `CC[C@H](C)[C@@H]([C@@H](CC(=O)N1CCCC1[C@H](OC)[C@@H](C)C(=O)N[C@H](C)[C@@H](O)c1ccccc1)OC)N(C)C(=O)[C@@H](NC(=O)[C@H](C(C)C)N(C)C(=O)OCc1ccc(NC(=O)[C@@H]2CCCN2C(=O)[C@H](CC(C)C)NC(=O)[C@H](CC(C)C)NC(=O)[C@H](C)NC(=O)CP(=O)(O)O)cc1)C(C)C` (some centres unmarked) [PhAc-ALLP-PABC-MMAE] (Phosphonoacetyl-ALLP[PABC][NMeV]V[Dil][X1]-X2): the Macroscopical toxicity entry is “without any hint of macroscopical sign of toxicity”. Also, the “Tumor volume compared to the untreated control group” value (four administrations) is given as “importantly reduced the tumor volume”.
